Conditions: Bacillus amyloliquefaciens, pH 6.3, Fluorescence, whole UniProt chain shown
[1] = 25 °C, GdnHCl, MES 450 mM, reversible: yes (100%)
[2] = Thermal, MES 50 mM, reversible: yes (>85%)

B1: Ribonuclease wild type, P00648 (protein)
chain: MMKMEGIALKKRLSWISVCLLVLVSAAGMLFSTAAKTETSSHKAHTEAQVINTFDGVADYLQTYHKLPDNYITKSEAQALGWVASKGNLADVAPGKSIGGDIFSNREGKLPGKSGRTWREADINYTSGFRNSDRILYSSDWLIYKTTDHYQTFTKIR
[1]
  denaturant m value: 4.51 kcal/mol/M
  denaturant midpoint (higher = more stable): 1.97 M
  unfolding free energy: 8.88 kcal/mol
[2]
  Tm: 53.9 °C
  unfolding enthalpy (van 't Hoff): 125 kcal/mol

— FireProtDB (doi:10.1021/bi00437a058)
